# Biological target: the molecule itself
# Experiment: cross-linking; in vitro UV crosslinking of purified Hsp33^M172S-BPA variants alone; dimers at ∼70 kDa
protein,measurement,value
"Hsp33^M172SL202BPA (natural protein, p-benzoyl-L-phenylalanine (BPA) at position 202) MIMPQHDQLHRYLFENFAVRGELVTVSETLQQILENHDYPQPVKNVLAELLVATSLLTATLKFDGDITVQLQGDGPMNLAVINGNNNQQMRGVARVQGEIPENADLKTLVGNGYVVITITPSEGERYQGVVGLEGDTLAACLEDYFMRSEQLPTRLFIRTGDVDGKPAAGGSLLQVMPAQNAQQDDFDHLATLTETIKTEEFLTLPANEVLWRLYHEEEVTVYDPQDVEFKCTCSRERCADALKTLPDEEVDSILAEDGEIDMHCDYCGNHYLFNAMDIAEIRNNASPADPQVH",stoichiometry N,2
